Our source for the 信号 (response) values is CN117858904A.

In the experiment the target is 人SIRPα抗原 (human signal regulatory protein alpha, proprietary antigen) (human) (UniProt P78324). Nature of the experiment: BLI (Octet Red384), SIRPa on AR2G sensor, 50 nM CD47 without antibody as analyte (positive control), 1200 s association.
Chain of UniProt P78324 (P78324 31-370 limits assumed): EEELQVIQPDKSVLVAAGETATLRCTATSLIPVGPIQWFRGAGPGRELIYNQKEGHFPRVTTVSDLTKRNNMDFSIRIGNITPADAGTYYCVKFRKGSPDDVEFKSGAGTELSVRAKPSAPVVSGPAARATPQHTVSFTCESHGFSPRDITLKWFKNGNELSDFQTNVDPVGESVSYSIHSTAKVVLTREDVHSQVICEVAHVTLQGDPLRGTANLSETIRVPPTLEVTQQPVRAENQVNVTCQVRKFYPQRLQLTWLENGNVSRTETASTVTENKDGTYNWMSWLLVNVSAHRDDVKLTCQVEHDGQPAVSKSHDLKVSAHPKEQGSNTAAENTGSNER

In turn, “专有CD47抗原 (proprietary human CD47 antigen of Examples 6 and 7) (from UniProt Q08722 19-139) (receptor)” yielded a 信号 (response) of 0.297 nm.
